Here are results for 1 molecule from CN117025546A.

Assay [1] addresses GST标签蛋白 (Schistosoma japonicum (Blood fluke)) [GST: P08515]. As to the kind of experiment: indirect ELISA, GST tag protein coated at 10000 to 0.64 ng/mL, antibody at 1 μg/mL. In general terms: An ELISA detects its analyte on a solid surface through an enzyme-linked reagent.
For assay [2] the target is unchanged. Description: indirect ELISA, GST tag protein coated in dilution series, antibody at 1 μg/mL.

B1: 抗GST单克隆抗体 (杂交瘤细胞株62H9分泌, CCTCC NO:C2021187) (antibody, V domains shown)
VH: EVQLQESGPELVKPGASVRMSCKASGYTFTSYFMHWVKQKSGQGLEWIGYINPYHDGTNYNEKFKGKATLTSDKSSSTAYMELSSLTSEDSAVYSCARSQRLHWYFDVWGAGTTVTVSS
VL: DIVLTQSPTSLAVSLGQRATISCRASQGVSASSYSYIHWYQQKPGQPPKLLIKYASNLESGVPARFSGSGSGTDFTLNVHPVEEEDTATYYCQHSWEIPLTFGGGTKLEIK
B1: in assay [1], the 亲和力 turned out to be 20 ng/mL. The same molecule showed an OD (450nm) at antigen 20ng/ml in assay [2] of 1 OD.
